Results: the supplement of paper PMC7125110
± gives the standard error. Fewer inactive variants are shown than the library holds.

B1: glmS ribozyme (parent)
chain: AUAAAAGCGCCAGAACUACAGAAAUGUAGUUGACGAGGAGGAGGUUUAUCGAAUUUUCGGCGGAUGCCUCCAAA

Key:
Conditions in all cases: with glucosamine-6-phosphate
glucosamine-6-phosphate [1] = variants of: B1; experiment: self-cleavage kobs at 40 uM GlcN6P; higher = faster cleavage; RNA array
Summary of the method: (§1)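 Glucosamine-6-phosphate, from 40 μM to 10 mM in HEPES/KCl/Mg(OAc)2 buffer, was flowed over sequenced MiSeq chips carrying barcoded ribozyme variants transcribed in situ by E. coli RNA polymerase. A hybridised Cy3 probe tracked the variants at 37 °C as tiles were imaged over ~14 h. kobs, kcat and KM were obtained by fitting normalised per-tile medians to exponential decays and then applying weighted Michaelis–Menten fits across concentrations.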

glucosamine-6-phosphate [2] = variants of: B1; experiment: self-cleavage kobs at 160 uM GlcN6P; higher = faster cleavage; RNA array
Summary of the method: as §1

glucosamine-6-phosphate [3] = variants of: B1; experiment: self-cleavage kobs at 640 uM GlcN6P; higher = faster cleavage; RNA array
Summary of the method: as §1

glucosamine-6-phosphate [4] = variants of: B1; experiment: self-cleavage kobs at 2500 uM GlcN6P; higher = faster cleavage; RNA array
Summary of the method: as §1

glucosamine-6-phosphate [5] = variants of: B1; experiment: self-cleavage kobs at 10000 uM GlcN6P; higher = faster cleavage; RNA array
Summary of the method: as §1

Variant: A39U C61A
- self-cleavage kobs at 40 uM GlcN6P (glucosamine-6-phosphate [1]): < 1e-05 s⁻¹
- self-cleavage kobs at 160 uM GlcN6P (glucosamine-6-phosphate [2]): < 1e-05 s⁻¹
- self-cleavage kobs at 640 uM GlcN6P (glucosamine-6-phosphate [3]): < 1e-05 s⁻¹
- self-cleavage kobs at 2500 uM GlcN6P (glucosamine-6-phosphate [4]): < 1e-05 s⁻¹
- self-cleavage kobs at 10000 uM GlcN6P (glucosamine-6-phosphate [5]): < 1e-05 s⁻¹

Variant: G41C A53C C61A
- self-cleavage kobs at 40 uM GlcN6P (glucosamine-6-phosphate [1]): < 1e-05 s⁻¹
- self-cleavage kobs at 10000 uM GlcN6P (glucosamine-6-phosphate [5]): < 1e-05 s⁻¹

Variant: G43C G59U
- self-cleavage kobs at 40 uM GlcN6P (glucosamine-6-phosphate [1]): < 1e-05 s⁻¹
- self-cleavage kobs at 160 uM GlcN6P (glucosamine-6-phosphate [2]): < 1e-05 s⁻¹
- self-cleavage kobs at 640 uM GlcN6P (glucosamine-6-phosphate [3]): < 1e-05 s⁻¹
- self-cleavage kobs at 2500 uM GlcN6P (glucosamine-6-phosphate [4]): < 1e-05 s⁻¹
- self-cleavage kobs at 10000 uM GlcN6P (glucosamine-6-phosphate [5]): < 1e-05 s⁻¹

Variant: G44A C50G U55A
- self-cleavage kobs at 40 uM GlcN6P (glucosamine-6-phosphate [1]): < 1e-05 s⁻¹
- self-cleavage kobs at 640 uM GlcN6P (glucosamine-6-phosphate [3]): < 1e-05 s⁻¹
- self-cleavage kobs at 2500 uM GlcN6P (glucosamine-6-phosphate [4]): < 1e-05 s⁻¹

Variant: G43U A53U U65G
- self-cleavage kobs at 40 uM GlcN6P (glucosamine-6-phosphate [1]): < 1e-05 s⁻¹
- self-cleavage kobs at 640 uM GlcN6P (glucosamine-6-phosphate [3]): < 1e-05 s⁻¹

Variant: A42U A52U A64U G66U
- self-cleavage kobs at 40 uM GlcN6P (glucosamine-6-phosphate [1]): < 1e-05 s⁻¹

Variant: A39U G40C G43U
- self-cleavage kobs at 40 uM GlcN6P (glucosamine-6-phosphate [1]): < 1e-05 s⁻¹
- self-cleavage kobs at 10000 uM GlcN6P (glucosamine-6-phosphate [5]): < 1e-05 s⁻¹

Variant: G41U G43U U57G G62A C68A
- self-cleavage kobs at 40 uM GlcN6P (glucosamine-6-phosphate [1]): < 1e-05 s⁻¹
- self-cleavage kobs at 160 uM GlcN6P (glucosamine-6-phosphate [2]): < 1e-05 s⁻¹
- self-cleavage kobs at 640 uM GlcN6P (glucosamine-6-phosphate [3]): < 1e-05 s⁻¹
- self-cleavage kobs at 2500 uM GlcN6P (glucosamine-6-phosphate [4]): < 1e-05 s⁻¹
- self-cleavage kobs at 10000 uM GlcN6P (glucosamine-6-phosphate [5]): < 1e-05 s⁻¹

Variant: G40C U54G U56G
- self-cleavage kobs at 40 uM GlcN6P (glucosamine-6-phosphate [1]): 4.04e-05 ± 1.9e-05 s⁻¹
- self-cleavage kobs at 2500 uM GlcN6P (glucosamine-6-phosphate [4]): 0.000625 ± 0.00018 s⁻¹
- self-cleavage kobs at 10000 uM GlcN6P (glucosamine-6-phosphate [5]): 0.000719 ± 0.00012 s⁻¹

Variant: G40U A42U C61A
- self-cleavage kobs at 40 uM GlcN6P (glucosamine-6-phosphate [1]): < 1e-05 s⁻¹
- self-cleavage kobs at 10000 uM GlcN6P (glucosamine-6-phosphate [5]): < 1e-05 s⁻¹

Variant: G41A C67U U69A
- self-cleavage kobs at 40 uM GlcN6P (glucosamine-6-phosphate [1]): < 1e-05 s⁻¹

Variant: A42U U46C G51C C61A
- self-cleavage kobs at 40 uM GlcN6P (glucosamine-6-phosphate [1]): < 1e-05 s⁻¹

Variant: G40A C71A
- self-cleavage kobs at 40 uM GlcN6P (glucosamine-6-phosphate [1]): 0.00036 ± 4.6e-05 s⁻¹
- self-cleavage kobs at 160 uM GlcN6P (glucosamine-6-phosphate [2]): 0.000678 ± 0.00011 s⁻¹
- self-cleavage kobs at 640 uM GlcN6P (glucosamine-6-phosphate [3]): 0.00251 ± 0.00036 s⁻¹
- self-cleavage kobs at 2500 uM GlcN6P (glucosamine-6-phosphate [4]): 0.00849 ± 0.0017 s⁻¹
- self-cleavage kobs at 10000 uM GlcN6P (glucosamine-6-phosphate [5]): 0.0185 ± 0.0049 s⁻¹

Variant: G41C G60C
- self-cleavage kobs at 40 uM GlcN6P (glucosamine-6-phosphate [1]): < 1e-05 s⁻¹
- self-cleavage kobs at 160 uM GlcN6P (glucosamine-6-phosphate [2]): < 1e-05 s⁻¹
- self-cleavage kobs at 640 uM GlcN6P (glucosamine-6-phosphate [3]): < 1e-05 s⁻¹
- self-cleavage kobs at 2500 uM GlcN6P (glucosamine-6-phosphate [4]): < 1e-05 s⁻¹
- self-cleavage kobs at 10000 uM GlcN6P (glucosamine-6-phosphate [5]): < 1e-05 s⁻¹

Variant: G41C G60A
- self-cleavage kobs at 40 uM GlcN6P (glucosamine-6-phosphate [1]): < 1e-05 s⁻¹
- self-cleavage kobs at 640 uM GlcN6P (glucosamine-6-phosphate [3]): < 1e-05 s⁻¹
- self-cleavage kobs at 10000 uM GlcN6P (glucosamine-6-phosphate [5]): < 1e-05 s⁻¹

Variant: G41C G60U
- self-cleavage kobs at 40 uM GlcN6P (glucosamine-6-phosphate [1]): < 1e-05 s⁻¹
- self-cleavage kobs at 160 uM GlcN6P (glucosamine-6-phosphate [2]): < 1e-05 s⁻¹
- self-cleavage kobs at 640 uM GlcN6P (glucosamine-6-phosphate [3]): < 1e-05 s⁻¹
- self-cleavage kobs at 2500 uM GlcN6P (glucosamine-6-phosphate [4]): < 1e-05 s⁻¹

Variant: A39U U55C
- self-cleavage kobs at 40 uM GlcN6P (glucosamine-6-phosphate [1]): 0.000475 ± 4.6e-05 s⁻¹
- self-cleavage kobs at 160 uM GlcN6P (glucosamine-6-phosphate [2]): 0.00102 ± 0.00013 s⁻¹
- self-cleavage kobs at 640 uM GlcN6P (glucosamine-6-phosphate [3]): 0.00443 ± 0.00071 s⁻¹
- self-cleavage kobs at 2500 uM GlcN6P (glucosamine-6-phosphate [4]): 0.00902 ± 0.002 s⁻¹
- self-cleavage kobs at 10000 uM GlcN6P (glucosamine-6-phosphate [5]): 0.0244 ± 0.0038 s⁻¹

Variant: G41U U49C C61G
- self-cleavage kobs at 40 uM GlcN6P (glucosamine-6-phosphate [1]): < 1e-05 s⁻¹
- self-cleavage kobs at 10000 uM GlcN6P (glucosamine-6-phosphate [5]): < 1e-05 s⁻¹

Variant: A42G U69C C71A
- self-cleavage kobs at 40 uM GlcN6P (glucosamine-6-phosphate [1]): 0.000273 ± 0.00013 s⁻¹
- self-cleavage kobs at 2500 uM GlcN6P (glucosamine-6-phosphate [4]): 0.00647 ± 0.0028 s⁻¹

Variant: A39G U56C C71U
- self-cleavage kobs at 40 uM GlcN6P (glucosamine-6-phosphate [1]): 7.63e-05 ± 2.3e-05 s⁻¹

Variant: G40C G51U
- self-cleavage kobs at 40 uM GlcN6P (glucosamine-6-phosphate [1]): < 1e-05 s⁻¹
- self-cleavage kobs at 160 uM GlcN6P (glucosamine-6-phosphate [2]): < 1e-05 s⁻¹
- self-cleavage kobs at 640 uM GlcN6P (glucosamine-6-phosphate [3]): < 1e-05 s⁻¹
- self-cleavage kobs at 2500 uM GlcN6P (glucosamine-6-phosphate [4]): < 1e-05 s⁻¹
- self-cleavage kobs at 10000 uM GlcN6P (glucosamine-6-phosphate [5]): < 1e-05 s⁻¹

Variant: A42C U65G C70G C71G
- self-cleavage kobs at 40 uM GlcN6P (glucosamine-6-phosphate [1]): < 1e-05 s⁻¹

Variant: G40C C67G C71U
- self-cleavage kobs at 40 uM GlcN6P (glucosamine-6-phosphate [1]): < 1e-05 s⁻¹
